Experiments:
[1] = target: T1, HA-tagged Δ(227-309) striatin (human, UniProt O43815 1-780, Δ(227-309)); assay: co-IP; anti-HA immunoprecipitates (12CA5 with protein A-Sepharose, or F7 anti-HA-agarose when probing for Mst3 or Mst4; 1.5 h, 4°C) of lysates (1% Nonidet P-40, 0.135 M NaCl, 10% glycerol, 20 mM Tris pH 8.0) of HEK293 cells transfected with HA-striatins; endogenous partners by immunoblot, partner/HA-striatin ratio by chemilumimager against wild type; 50 mM NaF and 100 nM okadaic acid in the lysis buffer in the …; settings: partners not purified
T1 construct: source: HEK293, transfected, in lysate; not shown: HA, N-terminal, kept
T1 sequence (looked up): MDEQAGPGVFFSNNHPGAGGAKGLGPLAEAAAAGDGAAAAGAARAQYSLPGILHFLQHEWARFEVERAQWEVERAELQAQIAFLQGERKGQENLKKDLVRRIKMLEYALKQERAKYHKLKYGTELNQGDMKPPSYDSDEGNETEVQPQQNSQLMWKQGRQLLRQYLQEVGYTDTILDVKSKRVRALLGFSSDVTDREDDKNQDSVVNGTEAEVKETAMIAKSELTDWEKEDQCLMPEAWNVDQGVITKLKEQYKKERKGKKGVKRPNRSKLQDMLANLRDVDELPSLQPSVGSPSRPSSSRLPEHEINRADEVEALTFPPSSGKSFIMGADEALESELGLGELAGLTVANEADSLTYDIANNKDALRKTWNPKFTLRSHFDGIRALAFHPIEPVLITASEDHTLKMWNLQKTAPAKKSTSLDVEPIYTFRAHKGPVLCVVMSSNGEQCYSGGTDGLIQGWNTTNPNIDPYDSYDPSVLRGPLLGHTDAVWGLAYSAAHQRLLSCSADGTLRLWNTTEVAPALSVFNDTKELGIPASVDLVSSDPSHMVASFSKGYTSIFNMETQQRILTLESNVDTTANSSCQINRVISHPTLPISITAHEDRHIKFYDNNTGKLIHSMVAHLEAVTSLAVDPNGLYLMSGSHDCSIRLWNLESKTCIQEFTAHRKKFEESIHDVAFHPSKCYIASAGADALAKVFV

[2] = target: T2, HA-tagged Δ(70-116) striatin (human, UniProt O43815 1-780, Δ(70-116)); assay: as above; settings: partners not purified
T2 construct: also called coiled-coil deletion mutant; source: HEK293, transfected, in lysate; not shown: HA, N-terminal, kept
T2 sequence (looked up): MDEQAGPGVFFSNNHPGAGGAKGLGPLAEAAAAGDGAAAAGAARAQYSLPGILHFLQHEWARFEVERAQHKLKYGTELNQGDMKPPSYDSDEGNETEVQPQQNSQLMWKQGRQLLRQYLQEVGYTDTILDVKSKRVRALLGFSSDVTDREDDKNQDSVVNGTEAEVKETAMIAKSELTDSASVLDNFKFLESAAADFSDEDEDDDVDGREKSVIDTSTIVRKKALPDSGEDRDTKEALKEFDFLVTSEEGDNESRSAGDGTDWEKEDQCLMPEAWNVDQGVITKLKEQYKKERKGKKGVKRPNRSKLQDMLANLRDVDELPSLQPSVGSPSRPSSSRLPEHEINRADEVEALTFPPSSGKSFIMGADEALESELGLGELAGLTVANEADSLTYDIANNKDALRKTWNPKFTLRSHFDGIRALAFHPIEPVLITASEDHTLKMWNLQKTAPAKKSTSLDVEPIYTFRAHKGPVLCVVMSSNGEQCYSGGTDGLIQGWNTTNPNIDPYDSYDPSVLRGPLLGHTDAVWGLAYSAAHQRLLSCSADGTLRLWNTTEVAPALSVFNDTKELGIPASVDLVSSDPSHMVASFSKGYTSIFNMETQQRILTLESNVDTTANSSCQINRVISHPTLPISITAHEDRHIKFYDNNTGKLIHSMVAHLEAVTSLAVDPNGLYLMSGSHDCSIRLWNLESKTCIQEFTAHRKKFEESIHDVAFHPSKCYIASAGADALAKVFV

B1: Mob3/phocein (natural protein, human (endogenous in HEK293), UniProt Q9Y3A3 1-225, looked up)
chain: MVMAEGTAVLRRNRPGTKAQDFYNWPDESFDEMDSTLAVQQYIQQNIRADCSNIDKILEPPEGQDEGVWKYEHLRQFCLELNGLAVKLQSECHPDTCTQMTATEQWIFLCAAHKTPKECPAIDYTRHTLDGAACLLNSNKYFPSRVSIKESSVAKLGSVCRRIYRIFSHAYFHHRQIFDEYENETFLCHRFTKFVMKYNLMSKDNLIVPILEEEVQNSVSGESEA
notes: source: endogenous, HEK293 lysate
[1]
  percent of the wild-type level bound: 75 % of wild-type levels
[2]
  percent of the wild-type level bound: 40 % of wild-type levels
